# Data reported in patent US20050277575A1, “Therapeutic compositions and methods for treating diseases that involve angiogenesis” (priority 2004, published 2005).
# Experiments:
# [1] = target: T1, t-PA-mediated plasminogen activation (Homo sapiens, UniProt P00750); test: t-PA-mediated plasminogen conversion kinetics with and without S100A4 (Example 12); assay type: biochemical; settings: for acceleration of plasmin formation (K units): 1 μM S100A4, 100 nM plasminogen
# T1 construct: purchased Calbiochem
# T1 sequence (P00750 36-562): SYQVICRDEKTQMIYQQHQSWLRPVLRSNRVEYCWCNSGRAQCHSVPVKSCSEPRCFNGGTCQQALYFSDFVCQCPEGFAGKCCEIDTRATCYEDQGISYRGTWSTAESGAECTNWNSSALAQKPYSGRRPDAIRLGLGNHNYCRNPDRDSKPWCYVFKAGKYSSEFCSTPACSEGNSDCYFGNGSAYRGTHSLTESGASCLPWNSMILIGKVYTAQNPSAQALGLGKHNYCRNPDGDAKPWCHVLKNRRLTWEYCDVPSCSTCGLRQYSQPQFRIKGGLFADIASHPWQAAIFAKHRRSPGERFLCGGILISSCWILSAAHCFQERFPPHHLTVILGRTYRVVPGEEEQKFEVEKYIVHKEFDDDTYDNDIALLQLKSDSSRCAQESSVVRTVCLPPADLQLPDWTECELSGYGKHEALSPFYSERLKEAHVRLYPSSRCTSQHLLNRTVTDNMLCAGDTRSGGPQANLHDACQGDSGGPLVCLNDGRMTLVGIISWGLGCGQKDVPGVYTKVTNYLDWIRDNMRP
# Experimental: The effects of peptide SEQ ID 6, peptide SEQ ID 38 and chimera SEQ ID 39 on acceleration oft-PA-mediated conversion of plasminogen to plasmin induced by S100A4 were measured. The kinetics of t-PA-mediated plasminogen activation were determined by measuring the amidolytic activity of plasmin formed during activation of plasminogen. All the experiments were done in 100 μl volume in 96-well plates in triplicates. Glu-plasminogen (Calbiochem) at the concentration of 100 nM was preincubated at 25° C. for 1 h in the presence or absence of 1 μM recombinant S100A4 in a buffer consisting of 50 mM Tris-HCl, pH 7.4, 100 mM NaCl and 5 mM CaCl2 or 5 mM EGTA. In some experiments, different concentrations of peptides or chimera were preincubated together with proteins. The reaction was initiated by addition of 5 nM t-PA (Calbiochem) and 125 μM chromogenic plasmin substrate, Chromozym PL (Roche). The reactions were monitored at 405 nm for 1.5 h in a SPECTRAmax PLUS^384 microplate spectrophotometer (Molecular Devices) under control of the SOFTmax PRO kinetic program (Molecular Devices). The initial rates of plasmin generation, during the first 10-15 min, were calculated using linear regression analysis of plots of A405 nm versus time 2. The initial rates of plasmin generation were reported in units (K) of A405 nm/min^2×10^3. […] The titration data were analyzed with the four-parameter logistic equation K=(A−D)/(1+(x/C)^B)D. If A, asymptotic minimum, =0, this equation is converted to the Michaelis-Menten equation K=D/(1+(C/[S])^B), where [S] is substrate concentration, D=Vmax, C=Km, and B is the Hill coefficient.
# The addition of S100A4 to basal reaction (t-PA plus plasminogen) produced a significant increase in the plasminogen conversion rate. […] The stimulation of the plasminogen conversion by S100A4 was concentration-dependent with the half-maximal effect at 2.4 μM.
# The kinetic parameters of t-PA-mediated plasminogen conversion were evaluated in the presence and absence of S100A4 as a function of plasminogen concentrations ranging from 3 nM to 3 μM.
# [2] = target: T1, t-PA-mediated plasminogen activation; test: t-PA-dependent conversion of plasminogen to plasmin, effect of S100A4 (Example 11); assay type: biochemical
# Experimental: Non-active plasminogen can be converted to active protease plasmin by tissue type (t-PA) or urokinase type (u-PA) plasminogen activators. Except for its well-known fibrinolytic activity, plasmin also directly and indirectly, by activation of matrix metalloproteinases (MMPs), participates in the degradation of extracellular matrix that is important for the angiogenesis and tumor invasion. The kinetics of t-PA-mediated plasminogen activation was determined by measuring amidolytic activity of the plasmin generated during plasminogen activation. The reaction was performed with the plasmin substrate Chromozyme PL, tosyl-glycyl-prolyl-lysin-4-nitranilide-acetate (Roche) in the final concentration of 125 μM in a buffer consisting of 50 mM Tris-HCl, pH 7.4, 100 mM NaCl, 5 mM of CaCl2 or 5 mM of EGTA, and 150 nM of [Glu] plasminogen (Calbiochem). The reaction was preincubated with or without 2.5 μM S100A4 at 24 C° for 1 h in 96-well plates. The reaction was initiated by addition of t-PA (Calbiochem) up to 5 nM concentration, final volume 100 μl. Kinetic of substrate hydrolysis was measured at 2 min intervals at 405 nm in Spectramax Plus 384 spectrophotometer (Molecular Devices). Analysis of kinetics curves (Vmax, time to Vmax, and initial slope of kinetic data converted to A405 versus time^2) was performed with the help of Softmax PRO program (Molecular Devices).
# Kinetics of plasminogen to plasmin conversion consists of three parts. As shown in FIG. #3 curves 1 and 2 for t-PA, during first 1500 s the reaction is second order that corresponds to conversion of plasminogen to plasmin and consequent cleavage of chromogenic substrate by plasmin. The second part of reaction is linear, for which Vmax can be calculated. It starts after total conversion of plasminogen to plasmin and corresponds to cleavage of chromogenic substrate by plasmin with constant rate. In the third part of reaction, after 2700 s, the reaction is slowing down that corresponds to depletion of chromogenic substrate and finally the reaction reaches a plateau when all substrate is cleaved. As follows from the comparison of curves 1 and 2, t-PA along converted plasminogen to plasmin equally efficiently in the presence or absence of calcium. Neither conversion of plasminogen to plasmin took place in the absence of t-PA no S110A4 induced such conversion by itself, curves 5 and 6. In the presence of S100A4 linear part of reaction starts substantially earlier, which means that total conversion of plasminogen to plasmin was accelerated. Kinetic parameters for t-PA along and for combination of t-PA with S100A4 are represented in Table 4. […] S100A4 accelerated conversion of plasminogen to plasmin in calcium independent manner, curves 3 and 4.
# annexin II = target: T2, annexin II (Homo sapiens, UniProt P07355); test: Immunoprecipitation analysis of S100A4-annexin II complex formation; assay type: binding; settings: monomer and aggregated forms, in Ca2+ or EGTA
# T2 construct: GST (N); made in house; host or cells: E. coli ER2507
# T2 sequence (P07355 2-339 V98L): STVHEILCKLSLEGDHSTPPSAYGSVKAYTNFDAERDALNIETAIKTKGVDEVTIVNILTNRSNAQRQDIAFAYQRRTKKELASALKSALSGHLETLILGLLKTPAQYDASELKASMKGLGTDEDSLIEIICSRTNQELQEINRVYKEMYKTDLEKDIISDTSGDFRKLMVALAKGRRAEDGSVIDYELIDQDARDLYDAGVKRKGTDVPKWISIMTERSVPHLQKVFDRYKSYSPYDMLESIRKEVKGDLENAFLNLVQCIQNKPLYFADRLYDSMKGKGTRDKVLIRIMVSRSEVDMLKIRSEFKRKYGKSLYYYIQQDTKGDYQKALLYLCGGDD
# T2 sequence (P26447 whole entry partner): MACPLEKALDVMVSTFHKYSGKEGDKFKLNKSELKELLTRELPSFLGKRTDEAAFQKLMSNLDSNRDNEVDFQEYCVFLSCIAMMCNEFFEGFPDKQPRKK
# Experimental: S100A4 and annexin II proteins, both at the concentrations of 1.5 mg/ml, were pre-incubated overnight at 37° C. in TBS containing either 5 mM CaCl2, or 5 mM EGTA.
# The formation of the S100A4-annexin II complex was analyzed by immunoprecipitation with an anti-S100A4 rabbit polyclonal antibody. To this end, the reaction mixture was incubated with the antibody (10 μg/ml) for 1 h at 37° C. and then precipitated by adding protein G-sepharose beads (Affi-Gel; Bio-Rad Laboratories, Hercules, Calif.) and incubating the resulted mixture for 1 h at room temperature. After that the beads were washed 3 times by 500 ul of TBS, boiled in Laemmli sample buffer for 5 min, and then loaded on SDS-PAAG. The proteins were then electro-transferred to a nitrocellulose membrane. The Western blot analysis was performed using anti-Annexin II antibody (BD Pharmingen) used at 1:5000 dilution and sheep anti-mouse antibody conjugated to horseradish peroxidase (Amersham Pharmacia Biotech, Piscataway, N.J.) used at 1:10000 dilution, followed visualization of the Annexin II bands by chemiluminescence.
# However, the complex formation is more efficient in the case when the aggregated S100A4 are used. Additionally, the interaction between S100A4 (both monomer and oligomer) and annexin II is more efficient in the absence of Ca2+ (EGTA conditions) compared to that observed in the presence of Ca2+.
# [3] = Ca (5 mM CaCl2), with or without 2.5 μM S100A4
substance,measurement,setting,value
"S100A4: recombinant human S100A4 protein cloned from human placenta total RNA, Ca-binding protein of S100 family",EC50,"[1]; concentration-dependent stimulation, read-out: half-maximal effect of stimulation of plasminogen conversion",2.4 µM
same,plasmin generation in the absence of t-PA,[1]; no t-PA,plasmin generation did not take place
same,Km,"[1]; plasminogen 3 nM to 3 μM, read-out: Km of the t-PA-mediated plasminogen conversion",0.059 µM
same,acceleration of plasmin formation (K units),[1]; presence of Ca2+,15 fold
same,increase in the catalytic efficiency (Vmax/Km) of t-PA,[1]; presence of EGTA,7.6 fold
same,acceleration of plasmin formation (K units),[1]; presence of EGTA,11 fold
same,increase in the catalytic efficiency (Vmax/Km) of t-PA,[1]; presence of calcium,10 fold
same,increase of initial rate of plasmin generation,[2]; 2.5 μM S100A4 versus t-PA alone,more than 3 fold
same,Slope (initial rate of plasmin generation),[2]; [3],0.250 ΔA405/t^2(min^2) * 1000
same,Time to Vmax,[2]; [3],1440 s
same,complex formation with annexin II,annexin II,capable of complex formation with annexin II
